Results published in article doi:10.1101/2023.10.15.562437, “The guide RNA sequence dictates the slicing kinetics and conformational dynamics of the Argonaute silencing complex”.

Key:
[1] = biological target: T1, AGO2 D669A (UniProt Q9UKV8 1-859, D669A); assay: hydroxyl-radical footprinting; elevated reactivity at 9-11; Footprinting: 18 mM HEPES pH 7.4, 100 mM KOAc, 1.2 mM Mg(OAc)2, 0.015 mg/mL BSA, 0.0015 mg/mL yeast tRNA, 0.01% IGEPAL, 8.75 mM DTT, 37 C; filter binding (titra); settings: protein: recombinant; tags: N-terminal 3xFLAG; label: 32P 5' end of guide; complementary up to guide position 16
[2] = biological target: T1, AGO2 D669A; assay: hydroxyl-radical footprinting; peaks at 9-11; same at 1, 4 and 15 min; Footprinting: 18 mM HEPES pH 7.4, 100 mM KOAc, 1.2 mM Mg(OAc)2, 0.015 mg/mL BSA, 0.0015 mg/mL yeast tRNA, 0.01% IGEPAL, 8.75 mM DTT, 37 C; filter binding (titra); settings: protein: recombinant; tags: N-terminal 3xFLAG; label: 32P 5' end of guide; guide paired to internal site of longer target

T1 sequence (Q9UKV8 whole entry D669A): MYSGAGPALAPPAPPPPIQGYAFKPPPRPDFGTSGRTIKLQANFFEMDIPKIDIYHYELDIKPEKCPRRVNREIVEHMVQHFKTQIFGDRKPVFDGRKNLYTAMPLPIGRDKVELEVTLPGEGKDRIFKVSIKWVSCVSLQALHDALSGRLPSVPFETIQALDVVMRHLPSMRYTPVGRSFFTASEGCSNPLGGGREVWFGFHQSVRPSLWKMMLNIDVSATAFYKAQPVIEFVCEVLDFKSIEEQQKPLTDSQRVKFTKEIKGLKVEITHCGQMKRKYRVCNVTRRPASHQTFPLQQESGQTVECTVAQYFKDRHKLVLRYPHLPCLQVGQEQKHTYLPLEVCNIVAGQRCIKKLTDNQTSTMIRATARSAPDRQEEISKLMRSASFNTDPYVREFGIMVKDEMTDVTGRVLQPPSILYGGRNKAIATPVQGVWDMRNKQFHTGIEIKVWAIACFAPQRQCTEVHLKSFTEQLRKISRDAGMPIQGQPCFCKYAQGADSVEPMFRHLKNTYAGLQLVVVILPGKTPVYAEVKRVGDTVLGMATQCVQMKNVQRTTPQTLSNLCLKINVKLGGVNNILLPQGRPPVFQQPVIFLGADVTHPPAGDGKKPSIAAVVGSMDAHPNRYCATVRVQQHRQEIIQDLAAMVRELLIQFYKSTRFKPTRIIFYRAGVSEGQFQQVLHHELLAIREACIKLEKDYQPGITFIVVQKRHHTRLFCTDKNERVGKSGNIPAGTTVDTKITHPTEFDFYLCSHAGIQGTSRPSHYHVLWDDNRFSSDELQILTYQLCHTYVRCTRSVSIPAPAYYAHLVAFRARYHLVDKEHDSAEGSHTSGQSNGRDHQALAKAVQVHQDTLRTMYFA

B1: miR-124 guide + 16-bp target (dsRNA)
RNA 1: UAAGGCACGCGGUGAAUGCCAA
RNA 2: GGGAACAACAACAACAACAACAACAACAACAAAAUUUUUUCACCGCGUGCCUUAAACAACAACAACAACA
modifications: guide 5' phosphate
B1: binds [1].

B2: miR-196a guide + perfect target (dsRNA)
RNA 1: UAGGUAGUUUCAUGUUGUUGGG
RNA 2: GGGAACAACAACAACAACAACAACAACAACAACCCAACAACAUGAAACUACCUAAACAACAACAACAACA
modifications: guide 5' phosphate
B2: binds [2].
